The text below walks through data of paper PMC4196864.

The target in the assay is paclitaxel-stabilized microtubules assembled from purified porcine brain tubulin (porcine) (UniProt P02550). In words: co-sedimentation.

Take “6xHis/mCherry-tagged XMAP4 phosphomimetic mutant (T758E/T762E) (natural protein)”: the fold lower band intensity in MT pellets than the T758A/T762A mutant was 1.4 fold.
